Measured values reported in CN116813768A.

Target: 大熊猫TSHβ特异序列(TSHβ-1), synthetic peptide (大熊猫 (giant panda))
Assay: indirect ELISA, TSHβ-1 peptide coated at 2 μg/mL, serial dilutions of purified antibody, OD450

B1: 大熊猫TSHβ单克隆抗体 (secreted by hybridoma cell line TSHB-A, CCTCC NO: C202282) (antibody, V domains shown)
VH: EVKLVESGGGLVKPGGSLKLSCAASGFIFRRYAMSWVRQTPEKRLEWVAAISSGGNIYYLDNVKGRFTISRDDARNILYLQMSSLRSEDTAMYYCARDDYDEDWYFDVWGAGTTVTVSS
VL: DVLMTQIPLSLPVSLGDQASISCRSSQSIVHSNGNTYLEWYLQKPGQSPNLLIYKVSNRFSGVPDRFSGSGSGTDFTLKISRVEAEDLGVYYCFQGSHLPPTFGGGTKLEIK
效价 (ELISA titer) (fold dilution): > 1e+06
